Assay results from the Human Domainome abundance scans (Beltran et al. 2025).

B1: DnaJ homolog subfamily C member 5, residues 16 to 77; numbered along this chain, Q9H3Z4 (parent)
chain: LYHVLGLDKNATSDDIKKSYRKLALKYHPDKNPDNPEAADKFKEINNAHAILTDATKRNIYD

Variants of: B1
Experiment: abundance fitness (aPCA) (normalised: wild type 0, dead -1); higher = more abundant; growth selection in yeast, the domain comes from the species named
Details: Homo sapiens

Abundance fitness of substitutions, site by site:
K26: H -0.239 | C -0.318 | M 0.021 | S -0.211 | R -0.214 | L -0.075 | Q 0.032 | F -0.385 | N -0.358 | T -0.189 | E 0.155 | G -0.415 | D -0.12 | W -0.477 | V -0.13 | P -0.264 | I 0.244 | A -0.081
Y20: L -0.505 | E 0.2 | T -0.236 | V -0.28 | R -0.148 | C -0.182 | S -0.086 | Q 0.015 | P -0.093 | G -0.189 | I -0.603 | M -0.414 | H 0.109 | F 0.191 | D -0.053 | W 0.329 | K -0.27
Y27: W 0.231 | A -0.344 | G -0.27 | C -0.239 | M -0.196 | S -0.21 | K -0.379 | E -0.07 | R -0.543 | I -0.715 | D -0.316 | T -0.157 | N -0.83 | H 0.185 | V -0.571 | L -0.326 | P -0.61 | F 0.185
R21: A 0.379
P29: Y -0.413 | R -0.422 | S -0.159 | N -0.278 | Q -0.377 | F -0.542 | L -0.472 | D -0.111 | I -0.57 | G -0.381 | W -0.66 | M -0.386 | H -0.539 | A -0.053 | T -0.292 | V -0.414 | C -0.42
H28: G -0.037 | R -0.194 | F -0.541 | D 0.062 | Q 0.34 | A -0.06 | L -0.536 | S 0.219 | K 0.134 | W -0.474 | E 0.179 | V -0.459 | C -0.29 | Y -0.409
L25: N -0.073 | E 0.321 | G -0.293 | M -0.101 | W -0.346 | H -0.442 | D 0.17 | K -0.159 | S -0.377 | F -0.068 | A 0.039 | Y -0.299 | Q 0.024 | C -0.102 | P -0.21 | T -0.025 | V -0.007 | R -0.069
A24: I 0.086 | R -0.041 | V 0.126 | M -0.028 | D -0.552 | T 0.002 | K -0.034 | G -0.377 | F 0.213 | P -0.449 | W 0.245 | C 0.159 | Q -0.093 | Y 0.208 | E 0.028 | L -0.095 | S 0.044
D30: N -0.018 | P -0.384 | K 0.084 | C -0.221 | E 0.01 | M -0.089 | F -0.828 | G -0.171 | A 0.14
L23: I -0.736 | W -0.423 | Y -0.403 | N -0.052 | Q -0.334 | D -0.129 | M -0.209 | A -0.454 | E -0.067 | G -0.308 | V -0.525 | P -0.438 | S -0.423 | H -1.2 | K -0.247 | F -0.536
K22: P -0.266 | N -0.188 | R 0.041 | A 0.117 | F -0.16 | E 0.249 | C -0.19 | L 0.039 | G 0.045 | M 0.32 | W -0.339 | Y -0.246 | Q 0.217 | S 0.166 | H 0.169 | I -0.179 | V 0.168
S19: Y -0.299 | V -0.187 | T -0.106 | W -0.813 | R -0.317
